{
  "source": "paper PMC5712619",
  "about": "“3-Sulfogalactosyl-dependent adhesion of Escherichia coli HS multivalent adhesion molecule is attenuated by sulfatase activity” (The Journal of Biological Chemistry, 2017)",
  "molecular_target": "mucin from porcine stomach type II (porcine)",
  "sequence (main, as listed by the source)": "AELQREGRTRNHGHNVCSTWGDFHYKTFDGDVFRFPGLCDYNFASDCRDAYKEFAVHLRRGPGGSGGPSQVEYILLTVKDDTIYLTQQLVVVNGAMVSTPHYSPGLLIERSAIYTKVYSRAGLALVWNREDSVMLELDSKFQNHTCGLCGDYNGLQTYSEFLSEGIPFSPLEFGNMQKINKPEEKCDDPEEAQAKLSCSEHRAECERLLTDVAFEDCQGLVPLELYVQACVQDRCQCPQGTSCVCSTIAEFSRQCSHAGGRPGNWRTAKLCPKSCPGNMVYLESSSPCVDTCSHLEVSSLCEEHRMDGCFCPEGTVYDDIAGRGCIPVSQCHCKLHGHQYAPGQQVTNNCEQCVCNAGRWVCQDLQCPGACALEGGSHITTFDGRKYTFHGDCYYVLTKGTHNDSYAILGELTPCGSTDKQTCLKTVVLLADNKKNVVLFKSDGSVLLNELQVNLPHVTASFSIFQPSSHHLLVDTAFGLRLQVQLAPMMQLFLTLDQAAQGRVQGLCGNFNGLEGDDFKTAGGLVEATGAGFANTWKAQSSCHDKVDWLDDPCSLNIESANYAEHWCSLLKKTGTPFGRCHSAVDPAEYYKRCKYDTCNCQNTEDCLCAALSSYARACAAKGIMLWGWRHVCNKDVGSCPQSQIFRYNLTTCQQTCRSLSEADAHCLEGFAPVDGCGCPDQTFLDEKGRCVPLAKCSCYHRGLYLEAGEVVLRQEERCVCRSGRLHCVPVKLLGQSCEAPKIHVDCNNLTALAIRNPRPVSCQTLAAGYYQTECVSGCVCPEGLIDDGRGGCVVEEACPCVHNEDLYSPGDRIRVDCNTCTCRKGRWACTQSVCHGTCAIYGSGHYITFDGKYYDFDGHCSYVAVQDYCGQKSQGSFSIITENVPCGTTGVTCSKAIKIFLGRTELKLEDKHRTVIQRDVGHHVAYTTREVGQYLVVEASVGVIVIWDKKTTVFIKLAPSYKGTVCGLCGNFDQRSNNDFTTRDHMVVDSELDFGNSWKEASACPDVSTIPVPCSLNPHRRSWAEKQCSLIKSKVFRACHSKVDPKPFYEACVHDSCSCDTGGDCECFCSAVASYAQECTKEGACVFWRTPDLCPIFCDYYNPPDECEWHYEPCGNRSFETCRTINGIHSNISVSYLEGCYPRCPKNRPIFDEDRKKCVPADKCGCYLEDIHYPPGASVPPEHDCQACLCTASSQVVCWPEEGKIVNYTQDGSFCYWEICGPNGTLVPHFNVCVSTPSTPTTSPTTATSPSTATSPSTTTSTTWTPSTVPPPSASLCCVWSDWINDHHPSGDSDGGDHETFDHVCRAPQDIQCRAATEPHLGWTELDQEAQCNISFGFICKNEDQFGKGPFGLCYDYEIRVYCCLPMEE",
  "test": "ELISA; as a2, but mucin type II was first treated with supernatant of the sulfatase-deficient B. thetaiotaomicron anSME mutant for 24 h or 72 h",
  "data": [
    {"substance": "GST-MAM^HS (multivalent adhesion molecule from the gut commensal Escherichia coli HS, ΔTM construct) (domain or fragment)", "values": [
      {"measurement": "loss of binding as percent of the loss seen with wild-type supernatant (24 h treatment of mucin with anSME mutant supernatant)", "value": 25, "unit": "%"},
      {"measurement": "loss of binding as percent of the loss seen with wild-type supernatant (72 h treatment of mucin with anSME mutant supernatant)", "value": 50, "unit": "%"}
    ]}
  ]
}
